The results in this text go back to paper PMC13570301.

As a reminder, the stoichiometry N is the number of molecules, sites or subunits per partner or assembly.

Assay [1] addresses T1, CHIP G33S, recombinant, C-terminal His tag, Q9UNE7-1.
T1 chain: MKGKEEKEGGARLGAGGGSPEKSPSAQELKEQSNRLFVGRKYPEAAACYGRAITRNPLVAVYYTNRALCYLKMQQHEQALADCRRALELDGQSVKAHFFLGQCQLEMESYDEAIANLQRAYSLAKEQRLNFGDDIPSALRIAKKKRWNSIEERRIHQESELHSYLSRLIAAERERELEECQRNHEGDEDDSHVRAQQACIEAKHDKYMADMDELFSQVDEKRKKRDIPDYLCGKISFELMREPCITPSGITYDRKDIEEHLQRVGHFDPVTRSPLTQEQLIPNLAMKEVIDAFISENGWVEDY
Briefly: mass photometry. To be noted: chain shown with the change, self-association, fraction weighted by number of monomeric subunits, n = 3, read off a plot.

In assay [2] the target is T2, CHIP-myc wild type (pcDNA3-CHIP-myc) (human), Q9UNE7.
T2 chain: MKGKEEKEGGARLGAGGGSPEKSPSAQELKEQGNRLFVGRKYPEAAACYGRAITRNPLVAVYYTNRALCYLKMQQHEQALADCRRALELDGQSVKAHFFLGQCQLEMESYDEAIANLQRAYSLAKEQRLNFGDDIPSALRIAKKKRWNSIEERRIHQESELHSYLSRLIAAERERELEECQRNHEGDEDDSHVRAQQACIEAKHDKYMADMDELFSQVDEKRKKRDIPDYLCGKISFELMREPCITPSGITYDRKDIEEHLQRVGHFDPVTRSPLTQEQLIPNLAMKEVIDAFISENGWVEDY
Briefly: native gel or EMSA; Blue native PAGE and immunoblot of lysates (Native PAGE sample buffer, 1% digitonin) of transfected COS-7 cells kept at 37 °C or heat-shocked at 42 °C for 2 h; self-association. To be noted: remark: other sources report otherwise.

B1: CHIP wild type, recombinant, C-terminal His tag (pET30-CHIP-His), Q9UNE7-1 G33S (protein)
chain: MKGKEEKEGGARLGAGGGSPEKSPSAQELKEQSNRLFVGRKYPEAAACYGRAITRNPLVAVYYTNRALCYLKMQQHEQALADCRRALELDGQSVKAHFFLGQCQLEMESYDEAIANLQRAYSLAKEQRLNFGDDIPSALRIAKKKRWNSIEERRIHQESELHSYLSRLIAAERERELEECQRNHEGDEDDSHVRAQQACIEAKHDKYMADMDELFSQVDEKRKKRDIPDYLCGKISFELMREPCITPSGITYDRKDIEEHLQRVGHFDPVTRSPLTQEQLIPNLAMKEVIDAFISENGWVEDY
Turning to B1, the other: fraction of total CHIP in octamer (8n) in assay [1] (parent: est. 0.12) came to 0.13. For the same molecule, the other: fraction of total CHIP in hexamer (6n) in assay [1] (parent: est. 0.23) stood at 0.2. In assay [1] (parent: est. 0.32), the other: fraction of total CHIP in dimer (2n) was found to be 0.38. In addition, the other: fraction of total CHIP in tetramer (4n) in assay [1] (parent: est. 0.33) is 0.3.

B2: CHIP-myc wild type (pcDNA3-CHIP-myc), Q9UNE7-1 1-303 (enzyme)
chain: MKGKEEKEGGARLGAGGGSPEKSPSAQELKEQGNRLFVGRKYPEAAACYGRAITRNPLVAVYYTNRALCYLKMQQHEQALADCRRALELDGQSVKAHFFLGQCQLEMESYDEAIANLQRAYSLAKEQRLNFGDDIPSALRIAKKKRWNSIEERRIHQESELHSYLSRLIAAERERELEECQRNHEGDEDDSHVRAQQACIEAKHDKYMADMDELFSQVDEKRKKRDIPDYLCGKISFELMREPCITPSGITYDRKDIEEHLQRVGHFDPVTRSPLTQEQLIPNLAMKEVIDAFISENGWVEDY
B2 registered a stoichiometry N in assay [2] of 2.
